Measurements: paper PMC7496416 (Molecular microbiology, 2020)

What was measured:
[1] = biological target: T1, NasR (His10-MBP-NasR) (Klebsiella oxytoca, UniProt Q48468); test: fluorescence anisotropy of Cy3-labelled P1P2 nasF leader RNA, ion titration; format: biochemical; details: 8 uM protein; 50 mM HEPES pH 7.5, 100 mM KCl, 1 mM MgCl2; allosteric activator, NIT domain
T1 sequence (Q48468 1-396): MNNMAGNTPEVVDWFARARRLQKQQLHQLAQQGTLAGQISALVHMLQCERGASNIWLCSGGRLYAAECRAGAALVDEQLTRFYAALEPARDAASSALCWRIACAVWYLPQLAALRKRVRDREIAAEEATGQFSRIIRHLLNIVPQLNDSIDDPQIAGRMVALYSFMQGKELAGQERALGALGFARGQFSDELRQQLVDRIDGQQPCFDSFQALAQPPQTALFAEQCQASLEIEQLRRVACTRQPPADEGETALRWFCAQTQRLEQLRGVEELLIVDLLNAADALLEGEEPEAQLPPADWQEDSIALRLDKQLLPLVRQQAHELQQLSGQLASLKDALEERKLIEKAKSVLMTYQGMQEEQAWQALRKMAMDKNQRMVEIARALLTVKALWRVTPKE

[2] = tested on: NasR R340K (Klebsiella oxytoca); test: fluorescence anisotropy; details: 50 mM HEPES pH 7.5, 100 mM KCl, 1 mM MgCl2, with or without 1 mM KNO3; 50 nM Cy3-RNA final; 30 min in the dark, temperature not stated; Hill fit
[3] = tested on: NasR wild type (Klebsiella oxytoca); test: fluorescence anisotropy; details: 50 mM HEPES pH 7.5, 100 mM KCl, 1 mM MgCl2, with or without 1 mM KNO3; 50 nM Cy3-RNA final; 30 min in the dark, temperature not stated; Hill fit
[4] = tested on: NasR K347R (Klebsiella oxytoca); test: fluorescence anisotropy; details: 50 mM HEPES pH 7.5, 100 mM KCl, 1 mM MgCl2, with or without 1 mM KNO3; 50 nM Cy3-RNA final; 30 min in the dark, temperature not stated; Hill fit

| Compound | activation of RNA binding (Hill fit) [1] | binding signal (fold weaker than wild type) [2] | Kd [3] [µM] | binding signal (fold weaker than wild type) [4] |
| --- | --- | --- | --- | --- |
| O=[N+]([O-])O [nitrate] | RNA binding activity was only observed in conditions containing nitrate or nitrite | – | – | – |
| O=NO [nitrite] | RNA binding activity was only observed in conditions containing nitrate or nitrite | – | – | – |
| P1P2 two-hairpin RNA | – | 10 | 1 | 10 |
| P2 single-hairpin RNA | – | – | 12 | – |
